Paper PMC13544220, “Glycemic and bodyweight effects of GIPR coding variation reflect differences in surface expression and intrinsic functional impairment” (Science Advances, 2026)
Numbering of substitutions follows the chain as printed. Names and notes keep the numbering of the source.

Experiments:
Assay type in all cases: cell-based, human
[1] = system: wild-type and variant SNAP-GIPR; test: Surface SNAP-GIPR expression (SNAP-tag labelling) in AD293 cells; conditions: for AD293 Surface: Fig S3E, mean; for Surface SNAP-GIPR expression: sheet Fig 1C;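 as to all read-outs here: scaled to the experimental average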
Summary of the method: (§1)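 Surface GIPR is quantified from wide-field images after labelling intact transfected cells with a membrane-impermeant SNAP probe at 500 nM for 10 min at room temperature. Specific signal, corrected for nontransfected cells, is normalized to the experiment-wide average or to wild-type.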

[2] = system: wild-type and variant SNAP-GIPR; test: Surface SNAP-GIPR expression (SNAP-tag labelling) in INS-1 cells; conditions: Fig 4G; Mean
Summary of the method: as §1

[3] = system: wild-type and variant SNAP-GIPR; test: Single-concentration GIP cAMP response by HTRF in AD293 cells; conditions: Fig S3F, HTRF, mean;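 also: ratio to experiment-wide average response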
Procedure: (§2) All variants were tested in parallel on each occasion to control for transfection efficiency differences between experiments.

[4] = system: wild-type and variant SNAP-GIPR; test: Single-concentration GIP cAMP response by HTRF in INS-1 cells; conditions: Fig S3E, mean
Procedure: as §2

[5] = system: wild-type and variant SNAP-GIPR; test: cADDis cAMP imaging in AD293 cells, ensemble, expression-matched and per decile; conditions: Fig S3F, cADDis, mean
Summary of the method: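 Per-cell cAMP from cADDis intensity over time, with cells excluded by IBMX/FSK response criteria. Expression matching used wild-type surface-SNAP deciles, top and bottom trimmed, mean of decile means. Ensemble values ignore deciles. Wide-field imaging at 37 °C in KRBH with 6 mM glucose, 0.1% BSA, 24 h post-transfection in AD293.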

[6] = system: wild-type and variant SNAP-GIPR; test: Constitutive and agonist-mediated internalization, reversible SNAP-tag labelling, AD293 cells; set-up: key to Internalisation, Vehicle / Internalisation, +GIP / Internalisation, GIP-only: % internalization: residual fluorescence after Mesna vs pre-Mesna; Surface expression: unit not given here; conditions: Mean; for +GIP internalisation (100 nM) / GIP-specific internalisation (100 nM) / Constitutive internalisation (100 nM) / Surface expression: Fig 4E; for +GIP internalisation (100 nM) / GIP-specific internalisation (100 nM): GIP 100 nM; for Internalisation, +GIP / Internalisation, GIP-only / Internalisation, Vehicle: Fig S4C, AD293
Summary of the method: (§3)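 Surface SNAP-GIPR signal removable by Mesna was tracked by imaging before and 10 min after treatment in pH 8.6 TNE buffer. Internalization is the Mesna-resistant share of specific fluorescence.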

[7] = system: wild-type and variant SNAP-GIPR; test: Constitutive and agonist-mediated internalization, reversible SNAP-tag labelling, INS-1 cells; set-up: key to Internalisation, GIP-only / Internalisation, Vehicle / Internalisation, +GIP: % internalization: residual fluorescence after Mesna vs pre-Mesna; conditions: Mean; for +GIP internalisation (100 nM) / GIP-specific internalisation (100 nM) / Constitutive internalisation (100 nM): Fig 4G; for +GIP internalisation (100 nM) / GIP-specific internalisation (100 nM): GIP 100 nM; for Internalisation, +GIP / Internalisation, GIP-only / Internalisation, Vehicle: Fig S4C, INS-1
Summary of the method: as §3

[8] = column repeated, paired with cAMP 100 nM

B1: R183Q (protein, UniProt P48546 22-466, looked up, variant R183Q)
Gastric inhibitory …: RAETGSKGQTAGELYQRWERYRRECQETLAAAEPPSGLACNGSFDMYVCWDYAAPNATARASCPWYLPWHHHVAAGFVLRQCGSDGQWGLWRDHTQCENPEKNEAFLDQRLILERLQVMYTVGYSLSLATLLLALLILSLFRRLHCTRNYIHINLFTSFMLQAAAILSRDRLLPRPGPYLGDQALALWNQALAACRTAQIVTQYCVGANYTWLLVEGVYLHSLLVLVGGSEEGHFRYYLLLGWGAPALFVIPWVIVRYLYENTQCWERNEVKAIWWIIRTPILMTILINFLIFIRILGILLSKLRTRQMRCRDYRLRLARSTLTLVPLLGVHEVVFAPVTEEQARGALRFAKLGFEIFLSSFQGFLVSVLYCFINKEVQSEIRRGWHHCRLRRSLGEEQRQLPERAFRALPSGSGPGEVPTSRGLSSGTLPGPGNEASRELESYC
AD293 Surface [1, 8]: 0.6425 | AD293 Surface ([1]; paired with cAMP 100 pM): 0.6425 | Surface SNAP-GIPR expression ([1]; replicate 1): 0.7543 | Surface SNAP-GIPR expression ([1]; replicate 2): 1.106 | Surface SNAP-GIPR expression ([1]; replicate 3): 0.9536 | Surface SNAP-GIPR expression ([1]; replicate 4): 0.232 | Surface SNAP-GIPR expression ([1]; replicate 5): 0.7423 | Surface SNAP-GIPR expression ([1]; replicate 6): 0.6069 | Surface SNAP-GIPR expression ([1]; replicate 7): 1.15 | Surface SNAP-GIPR expression ([1]; replicate 8): 0.9044 | Surface SNAP-GIPR expression ([1]; replicate 9): 0.5747 | Surface SNAP-GIPR expression ([1]; replicate 10): 0.6709 | Surface SNAP-GIPR expression ([1]; replicate 11): 0.6959 | Surface SNAP-GIPR expression ([1]; replicate 12): 0.6048 | Surface SNAP-GIPR expression ([1]; replicate 13): 0.2083 | Surface SNAP-GIPR expression ([1]; replicate 14): 0.4922 | Surface SNAP-GIPR expression ([1]; replicate 15): 0.6065 | Surface SNAP-GIPR expression ([1]; replicate 16): 0.716 | Surface SNAP-GIPR expression ([1]; replicate 17): 0.7375 | Surface SNAP-GIPR expression ([1]; replicate 18): 0.5932 | Surface SNAP-GIPR expression ([1]; replicate 19): 0.8135 | Surface SNAP-GIPR expression ([1]; replicate 20): 0.672 | Surface SNAP-GIPR expression ([1]; replicate 21): 0.7253 | Surface SNAP-GIPR expression ([1]; replicate 22): 0.7101 | Surface SNAP-GIPR expression ([1]; replicate 23): 0.6734 | Surface SNAP-GIPR expression ([1]; replicate 24): 0.6371 | Surface SNAP-GIPR expression ([1]; replicate 25): 0.6035 | Surface SNAP-GIPR expression ([1]; replicate 26): 0.6412 | Surface SNAP-GIPR expression ([1]; replicate 27): 0.6638 | Surface SNAP-GIPR expression ([1]; replicate 28): 0.5579 | Surface SNAP-GIPR expression ([1]; replicate 29): 0.6957 | Surface SNAP-GIPR expression ([1]; replicate 30): 0.2984 | Surface SNAP-GIPR expression ([1]; replicate 31): 0.1821 | Surface SNAP-GIPR expression ([1]; replicate 32): 0.3718 | Surface SNAP-GIPR expression ([1]; replicate 33): 0.3193 | Surface SNAP-GIPR expression ([1]; replicate 34): 0.6173 | Surface SNAP-GIPR expression ([1]; replicate 35): 0.7865 | Surface SNAP-GIPR expression ([1]; replicate 36): 0.6007 | Surface SNAP-GIPR expression ([1]; replicate 37): 0.5904 | Surface SNAP-GIPR expression ([1]; replicate 38): 0.7906 | Surface SNAP-GIPR expression ([1]; replicate 39): 0.7153 | Surface SNAP-GIPR expression ([1]; replicate 40): 0.6916 | Surface SNAP-GIPR expression ([1]; replicate 41): 0.6376 | Surface expression [2]: 0.8445 | AD293 100 pM HTRF [3]: 0.04104 | AD293 100 nM HTRF [3]: 0.2411 | INS-1 cAMP (100 nM) [4]: 0.04521 | AD293 100 pM cADDis [5]: -1.0843 | AD293 100 nM cADDis [5]: 18.64 | +GIP internalisation (100 nM) [6]: 0.3247 | GIP-specific internalisation (100 nM) [6]: 0.02672 | Constitutive internalisation (100 nM) [6]: 0.298 | Surface expression [6]: 0.6535 | Internalisation, +GIP [6]: 49.3267 | Internalisation, GIP-only [6]: 3.992 | Internalisation, Vehicle [6]: 45.335 | +GIP internalisation (100 nM) [7]: 0.3116 | GIP-specific internalisation (100 nM) [7]: 0.02961 | Constitutive internalisation (100 nM) [7]: 0.282 | Internalisation, +GIP [7]: 37.4683 | Internalisation, GIP-only [7]: 3.708 | Internalisation, Vehicle [7]: 33.76

B2: S64A (protein, UniProt P48546 22-466, looked up, variant S64A)
Gastric inhibitory …: B1 Gastric inhibitory … with S43A, Q162R
AD293 Surface [1, 8]: 0.5377 | AD293 Surface ([1]; paired with cAMP 100 pM): 0.5377 | Surface SNAP-GIPR expression ([1]; replicate 1): 0.5948 | Surface SNAP-GIPR expression ([1]; replicate 2): 0.3831 | Surface SNAP-GIPR expression ([1]; replicate 3): 0.1917 | Surface SNAP-GIPR expression ([1]; replicate 4): 0.03284 | Surface SNAP-GIPR expression ([1]; replicate 5): 0.714 | Surface SNAP-GIPR expression ([1]; replicate 6): 0.449 | Surface SNAP-GIPR expression ([1]; replicate 7): 0.6736 | Surface SNAP-GIPR expression ([1]; replicate 8): 0.7024 | Surface SNAP-GIPR expression ([1]; replicate 9): 0.4646 | Surface SNAP-GIPR expression ([1]; replicate 10): 0.5884 | Surface SNAP-GIPR expression ([1]; replicate 11): 0.4154 | Surface SNAP-GIPR expression ([1]; replicate 12): 0.584 | Surface SNAP-GIPR expression ([1]; replicate 13): 0.53 | Surface SNAP-GIPR expression ([1]; replicate 14): 0.7656 | Surface SNAP-GIPR expression ([1]; replicate 15): 0.5316 | Surface SNAP-GIPR expression ([1]; replicate 16): 0.5279 | Surface SNAP-GIPR expression ([1]; replicate 17): 0.5713 | Surface SNAP-GIPR expression ([1]; replicate 18): 0.5329 | Surface SNAP-GIPR expression ([1]; replicate 19): 0.5212 | Surface SNAP-GIPR expression ([1]; replicate 20): 0.6932 | Surface SNAP-GIPR expression ([1]; replicate 21): 0.7203 | Surface SNAP-GIPR expression ([1]; replicate 22): 0.5804 | Surface SNAP-GIPR expression ([1]; replicate 23): 0.6278 | Surface SNAP-GIPR expression ([1]; replicate 24): 0.5394 | Surface SNAP-GIPR expression ([1]; replicate 25): 0.4918 | Surface SNAP-GIPR expression ([1]; replicate 26): 0.6002 | Surface SNAP-GIPR expression ([1]; replicate 27): 0.6328 | Surface SNAP-GIPR expression ([1]; replicate 28): 0.5573 | Surface SNAP-GIPR expression ([1]; replicate 29): 0.4754 | Surface SNAP-GIPR expression ([1]; replicate 30): 0.4312 | Surface SNAP-GIPR expression ([1]; replicate 31): 0.4378 | Surface SNAP-GIPR expression ([1]; replicate 32): 0.606 | Surface SNAP-GIPR expression ([1]; replicate 33): 0.6793 | Surface SNAP-GIPR expression ([1]; replicate 34): 0.4646 | Surface SNAP-GIPR expression ([1]; replicate 35): 0.5832 | Surface SNAP-GIPR expression ([1]; replicate 36): 0.4138 | Surface SNAP-GIPR expression ([1]; replicate 37): 0.5632 | Surface SNAP-GIPR expression ([1]; replicate 38): 0.4283 | Surface SNAP-GIPR expression ([1]; replicate 39): 0.6589 | Surface SNAP-GIPR expression ([1]; replicate 40): 0.5446 | Surface SNAP-GIPR expression ([1]; replicate 41): 0.5428 | Surface expression [2]: 0.6025 | AD293 100 pM HTRF [3]: 0.1562 | AD293 100 nM HTRF [3]: 1.061 | INS-1 cAMP (100 nM) [4]: 1.062 | AD293 100 pM cADDis [5]: 21.6969 | AD293 100 nM cADDis [5]: 34.42 | +GIP internalisation (100 nM) [6]: 0.3536 | GIP-specific internalisation (100 nM) [6]: 0.06262 | Constitutive internalisation (100 nM) [6]: 0.291 | Surface expression [6]: 0.5133 | Internalisation, +GIP [6]: 68.8859 | Internalisation, GIP-only [6]: 12.125 | Internalisation, Vehicle [6]: 56.7609 | +GIP internalisation (100 nM) [7]: 0.3425 | GIP-specific internalisation (100 nM) [7]: 0.05503 | Constitutive internalisation (100 nM) [7]: 0.2874 | Internalisation, +GIP [7]: 52.768 | Internalisation, GIP-only [7]: 8.16 | Internalisation, Vehicle [7]: 44.608
